The target in the assay is GST-TBP, GST-tagged full-length human TBP (human) (UniProt P20226). Description: pull-down; GST pull-down: GST-TBP, GST-TFIIB or TBP fragments on glutathione beads; analytes in buffer B2 (150 mM NaCl), 1 h at 4°C, four washes, Western blot. On the technique in general: In western blotting, separated proteins are transferred to a membrane and probed.
Sequence of GST-TBP, GST-tagged full-length human TBP (human) (P20226 whole entry, the tested form may be a part): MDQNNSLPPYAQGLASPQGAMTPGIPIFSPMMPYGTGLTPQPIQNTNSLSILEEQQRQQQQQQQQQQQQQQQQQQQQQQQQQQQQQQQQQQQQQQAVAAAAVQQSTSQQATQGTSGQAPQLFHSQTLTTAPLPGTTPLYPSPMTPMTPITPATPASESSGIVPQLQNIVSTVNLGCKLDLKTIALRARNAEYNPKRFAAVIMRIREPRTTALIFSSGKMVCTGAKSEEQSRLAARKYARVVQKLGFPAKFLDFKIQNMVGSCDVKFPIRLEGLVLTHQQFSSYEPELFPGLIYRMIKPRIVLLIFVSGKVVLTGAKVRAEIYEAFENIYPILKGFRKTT

For “SNAP complex (SNAPc) (from UniProt Q5SXM2 1-1469; Q92966 1-411; Q13487 1-334; Q16533 1-368; O75971 1-98)”, the increase in SNAPc recruitment to GST-TBP on addition of TFIIA amounted to 60%.

The values are drawn from paper PMC6004067.
